Reference: patent US20030108924A1

Biological target: KCNQ1 cardiac potassium channel (KvLQT1), full-length (UniProt P51787)
Experiment: cell-based or functional assay

increase of current after the 10th pulse of a depolarizing pulse train: 1.9 fold
time constant for activation at +40 mV (first time constant): 368 ms
time constant for activation at +40 mV (second time constant): 2150 ms
time constant of deactivation (tail currents at -50 mV after activation at +60 mV): 295 ms
voltage-dependence of activation, V1/2: 20.6 mV
Substance: KCNE1-D85N (cardiac potassium channel minK subunit polypeptide with asparagine at amino acid 85)
